Reference: paper PMC1635277

How the values were obtained:
Test in all cases: purified protein
Details in all cases: 20 mM Tris-HCl pH 8.5, 50 mM NaCl, 100 µg/ml BSA, 37°C
[1] = test system: Nc1nc2c(ncn2[C@@H]2O[C@H](COP(=O)(O)O[C@H]3[C@@H](O)[C@H](n4cnc5c(N)ncnc54)O[C@@H]3CO)[C@@H](OP(=O)(O)OC[C@H]3O[C@@H](n4ccc(=O)[nH]c4=O)[C@H](O)[C@@H]3OP(=O)(O)OC[C@H]3O[C@@H](n4cnc5c(N)ncnc54)[C@H](O)[C@@H]3O)[C@H]2O)c(=O)[nH]1
[2] = test system: Nc1nc2c(ncn2[C@@H]2O[C@H](COP(=O)(O)O[C@H]3[C@@H](O)[C@H](n4ccc(=O)[nH]c4=O)O[C@@H]3CO)[C@@H](OP(=O)(O)OC[C@H]3O[C@@H](n4ccc(=O)[nH]c4=O)[C@H](O)[C@@H]3OP(=O)(O)O)[C@H]2O)c(=O)[nH]1
[3] = test system: Nc1nc2c(ncn2[C@@H]2O[C@H](CO)[C@@H](OP(=O)(O)OC[C@H]3O[C@@H](n4ccc(=O)[nH]c4=O)[C@H](O)[C@@H]3OP(=O)(O)OC[C@H]3O[C@@H](n4cnc5c(N)ncnc54)[C@H](O)[C@@H]3O)[C@H]2O)c(=O)[nH]1
[4] = test system: Nc1nc2c(ncn2[C@@H]2O[C@H](COP(=O)(O)O[C@H]3[C@@H](O)[C@H](n4ccc(=O)[nH]c4=O)O[C@@H]3CO)[C@@H](OP(=O)(O)OC[C@H]3O[C@@H](n4ccc(=O)[nH]c4=O)[C@H](O)[C@@H]3O)[C@H]2O)c(=O)[nH]1
[5] = test system: Nc1nc2c(ncn2[C@@H]2O[C@H](CO)[C@@H](OP(=O)(O)OC[C@H]3O[C@@H](n4ccc(=O)[nH]c4=O)[C@H](O)[C@@H]3OP(=O)(O)O)[C@H]2O)c(=O)[nH]1
[6] = test system: Nc1nc2c(ncn2[C@@H]2O[C@H](COP(=O)(O)O[C@H]3[C@@H](O)[C@H](n4ccc(=O)[nH]c4=O)O[C@@H]3CO)[C@@H](OP(=O)(O)OC[C@H]3O[C@@H](n4ccc(=O)[nH]c4=O)[C@H](O)[C@@H]3OP(=O)(O)OC[C@H]3O[C@@H](n4cnc5c(N)ncnc54)[C@H](O)[C@@H]3O)[C@H]2O)c(=O)[nH]1

**Q.** How did the Km [1] turn out when “E5-CRD (colicin E5 C-terminal ribonuclease domain) (Escherichia coli)” was run?
**A.** 90.6 (23) μM

**Q.** What about the kcat [1] of the same substance?
**A.** 65.8 s⁻¹

**Q.** And the kcat/Km [1]?
**A.** 730000 M⁻¹ s⁻¹

**Q.** What about the Km [2] of the same substance?
**A.** 41.3 (16) μM

**Q.** What about the kcat [2] of the same substance?
**A.** 34 s⁻¹

**Q.** What about the kcat/Km [2] of the same substance?
**A.** 823000 M⁻¹ s⁻¹

**Q.** What about the Km [3] of the same substance?
**A.** 53.6 (16) μM

**Q.** And the kcat [3]?
**A.** 11.7 s⁻¹

**Q.** And the kcat/Km [3]?
**A.** 218000 M⁻¹ s⁻¹

**Q.** What about the Km [4] of the same substance?
**A.** 143 (38) μM

**Q.** What about the kcat [4] of the same substance?
**A.** 3.57 s⁻¹

**Q.** And the kcat/Km [4]?
**A.** 25100 M⁻¹ s⁻¹

**Q.** What about the Km [5] of the same substance?
**A.** 32.9 (5.5) μM

**Q.** What about the kcat [5] of the same substance?
**A.** 42.9 s⁻¹

**Q.** And the kcat/Km [5]?
**A.** 1.3e+06 M⁻¹ s⁻¹

**Q.** And the Km [6]?
**A.** 59.5 (18) μM

**Q.** What about the kcat [6] of the same substance?
**A.** 84.2 s⁻¹

**Q.** And the kcat/Km [6]?
**A.** 1.41e+06 M⁻¹ s⁻¹
